# Laboratory results: ChEMBL document CHEMBL2073968, “Multidrug resistance protein 4 (MRP4/ABCC4) mediates efflux of bimane-glutathione” (Int J Biochem Cell Biol, 2004)
# Substrate: [H][C@@]12CC=C3C[C@@H](OS(=O)(=O)O)CC[C@]3(C)[C@@]1([H])CC[C@]1(C)C(=O)CC[C@@]21[H]
# Test: TP_TRANSPORTER: uptake in membrane vesicles from MRP1-expressing Sf9 cells
# Assay type: functional, cell membranes, Membrane vesicle
protein,measurement,value
Multidrug resistance-associated protein 1 (Homo sapiens) (protein) MALRGFCSADGSDPLWDWNVTWNTSNPDFTKCFQNTVLVWVPCFYLWACFPFYFLYLSRHDRGYIQMTPLNKTKTALGFLLWIVCWADLFYSFWERSRGIFLAPVFLVSPTLLGITMLLATFLIQLERRKGVQSSGIMLTFWLVALVCALAILRSKIMTALKEDAQVDLFRDITFYVYFSLLLIQLVLSCFSDRSPLFSETIHDPNPCPESSASFLSRITFWWITGLIVRGYRQPLEGSDLWSLNKEDTSEQVVPVLVKNWKKECAKTRKQPVKVVYSSKDPAQPKESSKVDANEEVEALIVKSPQKEWNPSLFKVLYKTFGPYFLMSFFFKAIHDLMMFSGPQILKLLIKFVNDTKAPDWQGYFYTVLLFVTACLQTLVLHQYFHICFVSGMRIKTAVIGAVYRKALVITNSARKSSTVGEIVNLMSVDAQRFMDLATYINMIWSAPLQVILALYLLWLNLGPSVLAGVAVMVLMVPVNAVMAMKTKTYQVAHMKSKDNRIKLMNEILNGIKVLKLYAWELAFKDKVLAIRQEELKVLKKSAYLSAVGTFTWVCTPFLVALCTFAVYVTIDENNILDAQTAFVSLALFNILRFPLNILPMVISSIVQASVSLKRLRIFLSHEELEPDSIERRPVKDGGGTNSITVRNATFTWARSDPPTLNGITFSIPEGALVAVVGQVGCGKSSLLSALLAEMDKVEGHVAIKGSVAYVPQQAWIQNDSLRENILFGCQLEEPYYRSVIQACALLPDLEILPSGDRTEIGEKGVNLSGGQKQRVSLARAVYSNADIYLFDDPLSAVDAHVGKHIFENVIGPKGMLKNKTRILVTHSMSYLPQVDVIIVMSGGKISEMGSYQELLARDGAFAEFLRTYASTEQEQDAEENGVTGVSGPGKEAKQMENGMLVTDSAGKQLQRQLSSSSSYSGDISRHHNSTAELQKAEAKKEETWKLMEADKAQTGQVKLSVYWDYMKAIGLFISFLSIFLFMCNHVSALASNYWLSLWTDDPIVNGTQEHTKVRLSVYGALGISQGIAVFGYSMAVSIGGILASRCLHVDLLHSILRSPMSFFERTPSGNLVNRFSKELDTVDSMIPEVIKMFMGSLFNVIGACIVILLATPIAAIIIPPLGLIYFFVQRFYVASSRQLKRLESVSRSPVYSHFNETLLGVSVIRAFEEQERFIHQSDLKVDENQKAYYPSIVANRWLAVRLECVGNCIVLFAALFAVISRHSLSAGLVGLSVSYSLQVTTYLNWLVRMSSEMETNIVAVERLKEYSETEKEAPWQIQETAPPSSWPQVGRVEFRNYCLRYREDLDFVLRHINVTINGGEKVGIVGRTGAGKSSLTLGLFRINESAEGEIIIDGINIAKIGLHDLRFKITIIPQDPVLFSGSLRMNLDPFSQYSDEEVWTSLELAHLKDFVSALPDKLDHECAEGGENLSVGQRQLVCLARALLRKTKILVLDEATAAVDLETDDLIQSTIRTQFEDCTVLTIAHRLNTIMDYTRVIVLDKGEIQEYGAPSDLLQQRGLFYSMAKDAGLV,Km,5 µM
